In paper PMC11189301, “Structure of the human outer kinetochore KMN network complex” (Nature Structural & Molecular Biology, 2024):

T1: Knl1 residues 1870–2342 (human, UniProt Q8NG31 1870-2342)
T1 construct: Knl1, human, 2,342-residue protein, residues 1870-2342; coordinates traced R2097–H2342; Subunit within the KMN network cryo-EM sample; also called extended version of the Knl1 C terminus; source: High-5 insect cells, expressed and purified as part of KNL1C
T1 sequence (looked up): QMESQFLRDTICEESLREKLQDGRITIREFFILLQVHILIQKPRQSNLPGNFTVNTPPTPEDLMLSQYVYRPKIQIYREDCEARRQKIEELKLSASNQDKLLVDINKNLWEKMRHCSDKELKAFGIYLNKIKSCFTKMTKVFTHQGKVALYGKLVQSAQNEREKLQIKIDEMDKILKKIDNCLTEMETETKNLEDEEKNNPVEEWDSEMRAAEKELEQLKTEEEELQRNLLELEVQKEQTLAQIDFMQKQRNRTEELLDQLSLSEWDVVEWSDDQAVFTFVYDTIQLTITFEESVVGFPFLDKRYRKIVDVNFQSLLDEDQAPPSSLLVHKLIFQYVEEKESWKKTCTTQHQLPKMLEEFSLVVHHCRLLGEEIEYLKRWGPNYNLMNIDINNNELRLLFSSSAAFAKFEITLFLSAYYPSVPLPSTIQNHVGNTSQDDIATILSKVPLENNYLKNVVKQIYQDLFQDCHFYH

B1: Dsn1 (natural protein, Homo sapiens, UniProt Q9H410 1-356, looked up)
chain: MTSVTRSEIIDEKGPVMSKTHDHQLESSLSPVEVFAKTSASLEMNQGVSEERIHLGSSPKKGGNCDLSHQERLQSKSLHLSPQEQSASYQDRRQSWRRASMKETNRRKSLHPIHQGITELSRSISVDLAESKRLGCLLLSSFQFSIQKLEPFLRDTKGFSLESFRAKASSLSEELKHFADGLETDGTLQKCFEDSNGKASDFSLEASVAEMKEYITKFSLERQTWDQLLLHYQQEAKEILSRGSTEAKITEVKVEPMTYLGSSQNEVLNTKPDYQKILQNQSKVFDCMELVMDELQGSVKQLQAFMDESTQCFQKVSVQLGKRSMQQLDPSPARKLLKLQLQNPPAIHGSGSGSCQ
notes: Dsn1, subunit of human MIS12C; Subunit within the KMN network cryo-EM sample; residues N-terminal to Arg92 are disordered; source: High-5 insect cells, expressed and purified as part of MIS12C
B2: Nsl1 (natural protein, Homo sapiens, UniProt Q96IY1 1-281, looked up)
chain: MAGSPELVVLDPPWDKELAAGTESQALVSATPREDFRVRCTSKRAVTEMLQLCGRFVQKLGDALPEEIREPALRDAQWTFESAVQENISINGQAWQEASDNCFMDSDIKVLEDQFDEIIVDIATKRKQYPRKILECVIKTIKAKQEILKQYHPVVHPLDLKYDPDPAPHMENLKCRGETVAKEISEAMKSLPALIEQGEGFSQVLRMQPVIHLQRIHQEVFSSCHRKPDAKPENFITQIETTPTETASRKTSDMVLKRKQTKDCPQRKWYPLRPKKINLDT
notes: Nsl1, subunit of human MIS12C; Subunit within the KMN network cryo-EM sample; source: High-5 insect cells, expressed and purified as part of MIS12C

Key:
Nsl1 = target: B2; assay: cryo-EM structure; NDC80C, MIS12C and KNL1C mixed 1:1:1 and run on Superose 6 in 20 mM HEPES pH 8.0, 80 mM NaCl, 1 mM MgCl2, 1 mM TCEP; about 1 mg/ml on UltrAuFoil grids; 3.0 Å (MIS12C heads 3.8 Å); conditions: both partners purified
Knl1 residues 1870–2342 = target: T1, Knl1 residues 1870–2342; assay: as above; conditions: both partners purified
MIS12C = assay: SEC assessment of Knl1 mutants binding to MIS12C; design: species or system Homo sapiens; conditions: Knl1 (2131–2337) mutant + MIS12C at 4 µM each, 20 mM HEPES pH 7.8, 150 mM NaCl, 0.5 mM TCEP, Superose 6, at least two repeats
Method: Assessment of substitutions in the MIS12C–KNL1 interfaces
To test the effect of substitutions in the MIS12C–KNL1 interfaces, either wild-type MIS12C or MIS12C^Nsl1ΔC was mixed with either wild-type KNL1 or two mutants (KNL1^R2248D […] (KNL1^mut1), KNL1^S2270R S2272W (KNL1^mut2)) at 4 µM each in a buffer of 20 mM HEPES (pH 7.8), 150 mM NaCl and 0.5 mM TCEP, and 50 µl was loaded onto a Superose 6 size-exclusion column (Cytiva).
Extended Data Fig. 9 Biochemical validation of the MIS12C:Knl1 interface. a Coomassie blue-stained SDS-PAGE gels of the MIS12C:Knl1 interaction reconstitutions. MIS12C (WT) and MIS12C with Nsl1 truncated at the C-terminus (1–264 Nsl1 construct, MIS12C^Nsl1ΔC) were tested in their ability to bind either wild-type RWD domains of Knl1 (2131–2337 construct, labelled Knl1 for simplicity) or Knl1 mutants (R2248D/W2249S substitutions, Knl1^mut1, and S2270R/S2272W substitutions, Knl1^mut2, as well as S2270R/S2272W/R2248A/W2249S substitutions, Knl1^mut3). The binding experiments were repeated at least two independent times with identical results. The gels are aligned according to the fraction number of the protein sample eluted from the size exclusion column. b SEC elution chromatograms of all of the experiments described in (a). Source data

Dsn1 = target: B1; assay: cryo-EM structure; NDC80C, MIS12C and KNL1C mixed 1:1:1 and run on Superose 6 in 20 mM HEPES pH 8.0, 80 mM NaCl, 1 mM MgCl2, 1 mM TCEP; about 1 mg/ml on UltrAuFoil grids; 3.0 Å (MIS12C heads 3.8 Å); conditions: both partners purified

| binding result (Nsl1) | binding result (Knl1 residues 1870–2342) | binding result (Dsn1) | Molecule | MIS12C–Knl1 interaction by SEC, in words (MIS12C) | other results |
| --- | --- | --- | --- | --- | --- |
| binds | binds |  | ZWINT (natural protein, human, UniProt O95229 1-277, looked up, ZWINT, human; coordinates traced Q183–G221; Subunit within the KMN network cryo-EM sample; source: High-5 insect cells, expressed and purified as part of KNL1C) MEAAETEAEAAALEVLAEVAGILEPVGLQEEAELPAKILVEFVVDSQKKDKLLCSQLQVADFLQNILAQEDTAKGLDPLASEDTSRQKAIAAKEQWKELKATYREHVEAIKIGLTKALTQMEEAQRKRTQLREAFEQLQAKKQMAMEKRRAVQNQWQLQQEKHLQHLAEVSAEVRERKTGTQQELDRVFQKLGNLKQQAEQERDKLQRYQTFLQLLYTLQGKLLFPEAEAEAENLPDDKPQQPTRPQEQSTGDTMGRDPGVSFKAVGLQPAGDVNLP |  |  |
|  |  |  | Knl1^mut2: Knl1 (2131–2337 construct) with S2270R S2272W substitutions (protein, left off: His6, N-terminal, cleaved, Knl1 (2131–2337 construct) with S2270R S2272W substitutions) SLSEWDVVEWSDDQAVFTFVYDTIQLTITFEESVVGFPFLDKRYRKIVDVNFQSLLDEDQAPPSSLLVHKLIFQYVEEKESWKKTCTTQHQLPKMLEEFSLVVHHCRLLGEEIEYLKRWGPNYNLMNIDINNNELRLLFRSWAAFAKFEITLFLSAYYPSVPLPSTIQNHVGNTSQDDIATILSKVPLENNYLKNVVKQIYQDLFQD | did not importantly disrupt MIS12C–Knl1 interactions | MIS12C–Knl1 interaction by SEC, in words (MIS12C; listed as Knl1mut2): does not appear to reduce interaction with MIS12C |
|  |  |  | Knl1^mut1: Knl1 (2131–2337 construct) with R2248D W2249A substitutions (protein, UniProt Q8NG31 2131-2337, looked up, variant R2248D W2249A) SLSEWDVVEWSDDQAVFTFVYDTIQLTITFEESVVGFPFLDKRYRKIVDVNFQSLLDEDQAPPSSLLVHKLIFQYVEEKESWKKTCTTQHQLPKMLEEFSLVVHHCRLLGEEIEYLKDAGPNYNLMNIDINNNELRLLFSSSAAFAKFEITLFLSAYYPSVPLPSTIQNHVGNTSQDDIATILSKVPLENNYLKNVVKQIYQDLFQD | did not importantly disrupt MIS12C–Knl1 interactions |  |
|  |  |  | Knl1^mut3: Knl1 (2131–2337 construct) with S2270R S2272W R2248A W2249A substitutions (protein, UniProt Q8NG31 2131-2337, looked up, variant S2270R S2272W R2248A W2249A) SLSEWDVVEWSDDQAVFTFVYDTIQLTITFEESVVGFPFLDKRYRKIVDVNFQSLLDEDQAPPSSLLVHKLIFQYVEEKESWKKTCTTQHQLPKMLEEFSLVVHHCRLLGEEIEYLKAAGPNYNLMNIDINNNELRLLFRSWAAFAKFEITLFLSAYYPSVPLPSTIQNHVGNTSQDDIATILSKVPLENNYLKNVVKQIYQDLFQD | little to no change in the interaction |  |
|  | binds |  | B1 |  |  |
|  | binds | binds | B2 |  |  |
| binds |  | binds | Mis12 (natural protein, Homo sapiens, UniProt Q9H081 1-205, looked up, Mis12, subunit of human MIS12C; Subunit within the KMN network cryo-EM sample; source: High-5 insect cells, expressed and purified as part of MIS12C) MSVDPMTYEAQFFGFTPQTCMLRIYIAFQDYLFEVMQAVEQVILKKLDGIPDCDISPVQIRKCTEKFLCFMKGHFDNLFSKMEQLFLQLILRIPSNILLPEDKCKETPYSEEDFQHLQKEIEQLQEKYKTELCTKQALLAELEEQKIVQAKLKQTLTFFDELHNVGRDHGTSDFRESLVSLVQNSRKLQNIRDNVEKESKRLKIS |  |  |
| binds |  | binds | Spc25 (natural protein, Homo sapiens, UniProt Q9HBM1 1-224, looked up, Spc25, subunit of human NDC80C; coordinates traced D80–N224; Subunit within the KMN network cryo-EM sample; source: High-5 insect cells, expressed and purified as part of NDC80C) MVEDELALFDKSINEFWNKFKSTDTSCQMAGLRDTYKDSIKAFAEKLSVKLKEEERMVEMFLEYQNQISRQNKLIQEKKDNLLKLIAEVKGKKQELEVLTANIQDLKEEYSRKKETISTANKANAERLKRLQKSADLYKDRLGLEIRKIYGEKLQFIFTNIDPKNPESPFMFSLHLNEARDYEVSDSAPHLEGLAEFQENVRKTNNFSAFLANVRKAFTATVYN |  |  |
